Sequences and labels used below:
B1: HDV Ribozyme (parent)
chain: GGCCGGCAUGGUCCCAGCCUCCUCGCUGGCGCCGGCUGGGCAACAUUCCGAGGGGACCGUCCCCUCGGUAAUGGCGAAUGGGACCCA

In the data set the parent is B1. The experiment in a line: self-cleavage, relative activity (ratio to wild type); higher = more cleavage; co-transcriptional.
Take GGCCGGCAUGGUCCCAGCCCCCUCGCUGGCGCCGGCUGGGCAACAUUCCGAGGGGACCGUCCCCUCGGUAAUGGGGAAUGGGACCCA [U20C C75G]: the self-cleavage was 0.

Regarding GGCCGGCAUGGUCCCAGCCCCCUCGCUGGCGCCGGCUGGGCAACAUUCCGAGGGGACCGUCCCCUCGGUAAUGGUGAAUGGGACCCA [U20C C75U], the self-cleavage is 0.

For the variant GGCCGGCAUGGUCCCAGCCCCCUCGCUGGCGCCGGCUGGGCAACAUUCCGAGGGGAUCGUCCCCUCGGUAAUGGCGAAUGGGACCCA [U20C C57U], the self-cleavage came out at 0.306.

Consider GGCCGGCAUGGUCCCAGCCCCCUCGCUGGCGCCGGCUGGGCAACAUUCCGAGGGGAACGUCCCCUCGGUAAUGGCGAAUGGGACCCA [U20C C57A], for which the self-cleavage came to 0.0449.

For the variant GGCCGGCAUGGUCCCAGCCCCCUUGCUGGCGCCGGCUGGGCAACAUUCCGAGGGGACCGUCCCCUCGGUAAUGGCGAAUGGGACCCA [U20C C24U], the self-cleavage turned out to be 0.0475.

Regarding GGCCGGCAUGGUCCCAGCCCCCUCGCUGGCGCCGGCUGGGCAACAUUCCGAGGGGACCGUCCGCUCGGUAAUGGCGAAUGGGACCCA [U20C C63G], the self-cleavage came to 0.104.

GGCCGGCAUGGUCCCAGCCCCCUCGCUGGCGCCGGCUGGGCAACAUUCCGAGGGGACCGUCCUCUCGGUAAUGGCGAAUGGGACCCA [U20C C63U]: the self-cleavage worked out at 0.0898.

On to GGCCGGCAUGGUCCCAGCCCCCUCGCUGGCGCCGGCUGGGCAACAUUCCGAGGGGACCGUACCCUCGGUAAUGGCGAAUGGGACCCA [U20C C61A], for which the self-cleavage came to 0.166.

GGCCGGCAUGGUCCCAGCCCCCUCGCUGGCGCCGGCUGGGCAACAUUCCGAGGGGACCGUGCCCUCGGUAAUGGCGAAUGGGACCCA [U20C C61G]: the self-cleavage came to 0.128.

GGCCGGCAUGGUCCCAGCCCCCUCGCUGGCGCCGGCUGGGCAACAUUGCGAGGGGACCGUCCCCUCGGUAAUGGCGAAUGGGACCCA [U20C C48G]: the self-cleavage was 0.0594.

For the variant GGCCGGCAUGGUCCCAGCCCCCUCGCUGGCGCCGGCUGGGCAACAUUUCGAGGGGACCGUCCCCUCGGUAAUGGCGAAUGGGACCCA [U20C C48U], the self-cleavage was found to be 0.0791.

On to GGCCGGCAUGGUCCCAGCCCCCUCGCUGGCGCCGGCUGGGUAACAUUCCGAGGGGACCGUCCCCUCGGUAAUGGCGAAUGGGACCCA [U20C C41U], for which the self-cleavage came to 0.0449.

For the variant GGCCGGCAUGGUCCCAGCCCCCUCGCUGGCGCCGGCUGGGAAACAUUCCGAGGGGACCGUCCCCUCGGUAAUGGCGAAUGGGACCCA [U20C C41A], the self-cleavage amounted to 0.156.

For the variant GGCCGGCAUGGUCCCAGCCCCCUCGCUGGCGCCGGCUGGGCAACAUUCCGAGGGGACCGUCCCAUCGGUAAUGGCGAAUGGGACCCA [U20C C64A], the self-cleavage amounted to 0.145.

On to GGCCGGCAUGGUCCCAGCCCCCUCGCUGGCGCCGGCUGGGCAACAUUCCGAGGGGACCGUCCCGUCGGUAAUGGCGAAUGGGACCCA [U20C C64G], for which the self-cleavage stood at 0.128.

As for GGCCGGCAUGGUCCCAGCCCCCUCGCUGGCGCCGGCUGGGCAACAUUCCGAGGGGACCGUCUCCUCGGUAAUGGCGAAUGGGACCCA [U20C C62U], the self-cleavage was found to be 0.0875.

For GGCCGGCAUGGUCCCAGCCCCCUCGCUGGCGCCGGCUGGGCAACAUUCUGAGGGGACCGUCCCCUCGGUAAUGGCGAAUGGGACCCA [U20C C49U], the self-cleavage was 0.192.

Take GGCCGGCAUGGUCCCAGCCCCCUCGCUGGCGCCGGCUGGGCAACAUUCGGAGGGGACCGUCCCCUCGGUAAUGGCGAAUGGGACCCA [U20C C49G]: the self-cleavage was found to be 0.0852.

GGCCGGCAUGGUCCCAGCCCCCUCGCUGGCGCAGGCUGGGCAACAUUCCGAGGGGACCGUCCCCUCGGUAAUGGCGAAUGGGACCCA [U20C C33A]: the self-cleavage stood at 0.0665.

With GGCCGGCAUGGUCCCAGCCCCCUCGCUGGCGCUGGCUGGGCAACAUUCCGAGGGGACCGUCCCCUCGGUAAUGGCGAAUGGGACCCA [U20C C33U], the self-cleavage came to 0.0536.

Turning to GGCCGGCAUGGUCCCAGCCCCCUCGAUGGCGCCGGCUGGGCAACAUUCCGAGGGGACCGUCCCCUCGGUAAUGGCGAAUGGGACCCA [U20C C26A], the self-cleavage came to 0.104.

Consider GGCCGGCAUGGUCCCAGCCCCCUCGUUGGCGCCGGCUGGGCAACAUUCCGAGGGGACCGUCCCCUCGGUAAUGGCGAAUGGGACCCA [U20C C26U], for which the self-cleavage came to 0.192.

Turning to GGCCGGCAUGGUCCCAGCCCCCUCGCUGGCGUCGGCUGGGCAACAUUCCGAGGGGACCGUCCCCUCGGUAAUGGCGAAUGGGACCCA [U20C C32U], the self-cleavage is 0.0426.

With GGCCGGCAUGGUCCCAGCCCCCUCGCUGGCGACGGCUGGGCAACAUUCCGAGGGGACCGUCCCCUCGGUAAUGGCGAAUGGGACCCA [U20C C32A], the self-cleavage was determined as 0.185.

As for GGCCGGCAUGGUCCCAGCCCCUUCGCUGGCGCCGGCUGGGCAACAUUCCGAGGGGACCGUCCCCUCGGUAAUGGCGAAUGGGACCCA [U20C C22U], the self-cleavage was 0.125.

For GGCCGGCAUGGUCCCAGCCCCCUCGCUGGCGCCGGCUGGGCAACAUUCCGAGGGGACCGUCCCCUCGGUAAUGGCGAAUGGGACACA [U20C C85A], the self-cleavage is 0.119.

As for GGCCGGCAUGGUCCCAGCCCCCUCGCUGGCGCCGGCUGGGCAAUAUUCCGAGGGGACCGUCCCCUCGGUAAUGGCGAAUGGGACCCA [U20C C44U], the self-cleavage stood at 0.

With GGCCGGCAUGGUCCCAGCCCCCUCGCUGGCGCCGGCUGGGCAAGAUUCCGAGGGGACCGUCCCCUCGGUAAUGGCGAAUGGGACCCA [U20C C44G], the self-cleavage came to 0.0692.

For the variant GGCCGGCAUGGUCCCAGCCCCCUCGCUGGCGCCGGAUGGGCAACAUUCCGAGGGGACCGUCCCCUCGGUAAUGGCGAAUGGGACCCA [U20C C36A], the self-cleavage is 0.

In the case of GGCCGGCAUGGUCCCAGCCCCCUCGCUGGCGCCGGCUGGGCAACAUUCCGAGGGGACUGUCCCCUCGGUAAUGGCGAAUGGGACCCA [U20C C58U], the self-cleavage came out at 0.

In the case of GGCCGGCAUGGUCCCAGCCCCCUCGCUGGCGCCGGCUGGGCAACAUUCCGAGGGGACCGUCCCCUCGGUAAUGGCGAAUGGGAUCCA [U20C C84U], the self-cleavage came out at 0.111.

Consider GGCCGGCAUGGUCCCAGCCCCCUCGCUGGCGCCGGCUGGGCAACAUUCCGAGGGGACCGUCCCCUGGGUAAUGGCGAAUGGGACCCA [U20C C66G], for which the self-cleavage worked out at 0.131.

The values above are taken from the RNAGym collection of RNA variant scans (doi:10.7554/elife.80360).
